Experimental data taken from the DeepSol protein solubility set.

Test: soluble on expression in E. coli; label from the status in PepcDB or PDB records

Sequence: MSLTMYADLVLHGGSIATLDDKLEQAQAVAIAAGRIIAVGSDAHCLALAGPGTRRIGLGGACVMPGINDSHCHPDGQAVKAGRWDDVSQVATQQALLARIADFHRRMPAGAWYLGFRFDDTHSGGYPARQALEQAAPGRPVFLLRRDAQVGLASAPALAALLASGLATQVPPHCLDAATGLARGRGVFAFTTHIAAADSLDDYLEGFPTLFAEMGRMGITSVHNALTSALAVQAYRALHGAGRLPVRVGMMLNGRDQRLVDETLAAGLRFGAGDDRLYLLGVEYGSDGSTSGRTAAYYQPYVGEEGGDGRPANRGDVNFSAEDLAAKVGRVMAAGLQAAATGNGDRGIDFALDAFEQGLRAHPGAVPPRIEHCCCAPPAIQQRMAALGVIDSSAAGFAYNLGDAYLRNRPSAEMAWMWPHRDMLDRGVLVCAHSDAPVCERNPFLGMWSMVTRKTASGASLGAGQAITPLEAMRCYTANPARAEGQAARKGTLSPGKLADLIVLDRDPCAVDPDEIRHTQVLATLVGGQATYRAAGAPSWADELPMREEGHHHHHH
- soluble on expression in E. coli: soluble

Sequence: MDNPCPTCGQELEWTGQYHCSACTVDYCKVGFCPECGSELEKLQACGAANYFCNQCNELKSKSKIRFVFQPLNGNSQLEHHHHHH
- soluble on expression in E. coli: soluble

Sequence: MGHHHHHHSHPPERQINLSNIRAGNLARRAAATQPDAKDTPDEPWAFPAREFLRKKLIGKEVCFTIENKTPQGREYGMIYLGKDTNGENIAESLVAEGLATRREGMRANNPE
- soluble on expression in E. coli: not soluble

Sequence: MAHHHHHHMDPPAAFERRYPELGALRLHFDVLDSTQLYCKRNMARLLQNGSLQDDKHMVVVTCNEQTNGIGTRDTKKKQDRMWLSERGNLFTTFVLLWKREDLEKVKYLSQTSTVAVSKTLEHFHLVTQIKWVNDVLVNEKKIAGCLVHLHYLDDFPSLSRYACVMVGIGINITLRDKDNLLGDNYTSVQKELQRDFGSFCSIPSVEDVMDKLILNLHAVFTKLREEGFSSFLDYITPRLLYKDRNVLVDTDGELIAGHLQGLLHDGSLLLLRGENELVRVNTGHLRLG
- soluble on expression in E. coli: soluble

Sequence: MASSTVPVSAAGSANETPEIPDNVGDWLRGVYRFATDRNDFRRNLILNLGLFAAGVWLARNLSDIDLMAPQPGV
- soluble on expression in E. coli: not soluble

Sequence: LADYGRTAAVNRVEMRDTELGIVTAGVSYQYVREVFPNASVLKLGMVYPLPMDLIREFASKVTKLIVVEELDAFIEDQVKAAGISVTGKEAIPLCGELTPGRLRAAFGIPGAPQVTVENLPGRPPNMCPGCPHRGVFFTLNQLKAYVTGDIGCYTLGFMPPLNAMDTCVCMGASISSASGIVRVLSDEEKKKVVAVIGDSTFLHTGVNSLMEMAYNKAPATVVILDN
- soluble on expression in E. coli: not soluble

Sequence: MKYDTSELCDIYQEDVNVVEPLFSNFGGRASFGGQIITVKCFEDNGLLYDLLEQNGRGRVLVVDGGGSVRRALVDAELARLAVQNEWEGLVIYGAVRQVDDLEELDIGIQAMAAIPVGAAGEGIGESDVRVNFGGVTFFSGDHLYADNTGIILSEDPLDIE
- soluble on expression in E. coli: soluble

Sequence: MSVNEADLNAVEEQLGRAPRGVLDISYRSPDGVPGVVMTAPKLDDGTPFPTLYYLTDPRLTTEASRLEVALVMKWMTDRLSTDEELRADYQRAHEHFLAKRNAIEDLGTDFSGGGMPDRVKCLHVLIAYALAEGPDHFRLGTEAVAMAAEHGDLRGTAIPEDWPTVQDLGINMEDFDFSRAGGA
- soluble on expression in E. coli: not soluble

Sequence: MAHHHHHHMEGEEVPLVQPFRQHREQCRVKLQEIGPRMTLQLSKVENGFAGGEVIYHRTEKKTLREVQVNASKVRARKTEKAKRRALQDENVQRKRQKREDKLERKHQRREAAAEAQQANPFEVAHGDGDGDGYAAGDEE
- soluble on expression in E. coli: not soluble

Sequence: MGSDKIHHHHHHMYVAVKGGEKAIRAAHALQEQKRRGDGRLPELSVEQIGDQLSLAVDRVMTEGGIADRELAALALKQASGDNIEAIFLLRAYRTTLPRLAVSEPINTAEMRLERRISAVYKDIPGGQLLGPTYDYTHRLLDFTLLANGEAPSVQQADGEAEPTPHVFSLLTQQGLAKTEEDRGTPPDDITRTPPVYPCSRSSRLQQLMRGDEGYLLALAYSTQRGYGRNHPFAGEIRSGYVQVEIVPEELGFSVNIGELLLTECEMVNGFVAPQEEPPHFTRGYGLTFGMSERKAMAMALVDRALQAPDYDEEIAGPAQDEEFVLAHADNVEAAGFVSHLKLPHYVDFQAELALLKRLQRENERG
- soluble on expression in E. coli: not soluble

Sequence: MGERFYLYDDTVEAAVRFVSFVGERQRFDLALIETDRFYGKWLVLDLQSNRFAILGRDDLEEPGYIEHAYQLHEQDANDLRAFLEEYLS
- soluble on expression in E. coli: not soluble

Sequence: MTNHPIQGLMTTAMENLKQMIDVNTIIGDPVETPDGSVILTVSKVGFGFAAGGSEFMLDGQQNGHQGAQADGNGHPFGGGSGGGVSITPIAFLVVNSSGVKLLHLDESTHLYEKILDVAPQAFEKIQAMLKKNKKDGAAGQKADDFDI
- soluble on expression in E. coli: not soluble

Sequence: MTPVQIAAVVVTYESSSTIDACLSRLRAAEGISEIRVVDNASSDDTLEVVQRHALADARLHFIANPDNPGFATACNQGARDSQAPWLVFINPDLMIARDTLLQLYHRAAGHPAVLLGVEQVDEQGRPDAAVRRRDPDFAAMLRAPRAAANLAVPADPSRALQPVDAISGALMLMQRSLFDRLDGWDGSYRLHAEDLDLCRRARQAGALVAVANDLHVLHVRGVSSRARPFFVEWHKHRGLWRYFRKFEADRRGLLTRLGVWLAIWSHAAAQVPRLLQNKLEHHHHHH
- soluble on expression in E. coli: not soluble

Sequence: MQPLFTQERRIFHKKLLDGNILATNNRGVVSNADGSNTRSFNIAKGIADLLHSETVSERLPGQTSGNAFEAICSEFVQSAFEKLQHIRPGDWNVKQVGSRNRLEIARYQQYAHLTALAKAAEENPELAAALGSDYTITPDIIVTRNLIADAEINRNEFLVDENIATYASLRAGNGNMPLLHASISCKWTIRSDRAQNARSEGLNLVRNRKGRLPHIVVVTAEPTPSRISSIALGTGEIDCVYHFALYELEQILQSLNYEDALDLFYIMVNGKRLKDISDLPLDLAV
- soluble on expression in E. coli: soluble

Sequence: MKIAIFSKLTIKEDEIRKKLGNYDVDIFPPIKRGDLTSEKIFDYDIIGIIDGCFLQSTAVAHREILKVIENNITVFGAGSMGALRASELDTCGMIGVGLVYNLYKNGIISDDDEVAVTFDDNLNQITFSMISFREMIKNALNEKIIDEDDSKRLINSGKELYYPLRTFENVIEKSKISGEKREVLEKFLKNQPDIKRNDAFEMLEEIIKYIEKQ
- soluble on expression in E. coli: not soluble

Sequence: MDVVEVAGSWWAQEREDIIMKYEKGHRAGLPEDKGPKPFRSYNNNVDHLGIVHETELPPLTAREAKQIRREISRKSKWVDMLGDWEKYKSSRKLIDRAYKGMPMNIRGPMWSVLLNTEEMKMKNPGRYQIMKEKGKRSSEHIQRIDRDVSGTLRKHIFFRDRYGTKQRELLHILLAYEEYNPEVGYCRDLSHIAALFLLYLPEEDAFWALVQLLASERHSLQGFHSPNGGTVQGLQDQQEHVVATSQPKTMGHQSASRRRPGVARGHVFATGSLIPGPGMRTLCSSILGPL
- soluble on expression in E. coli: not soluble

Sequence: SLKSFPHGEKAPFPLTLIHINDLHARFDETNQKSSTCTNSKECIAGIARVYHTIKQLKSEYKTKNPLYLNAGDNFQGTLWYNLLRWNVTAYFIKELPPDAMTLGNHEFDHSPKGLAPYLAELEKMKIPTVVANLEKNGEPALKDSKIAPQIVLKVGNRKVGVIGALYDKTHLVAQTGMVTLTNSIEAVRKEAQELKKKNVNIIVVLSHCGLDGDKQLAEEAGDLIDVIVGAHSHSLLLNKDAKVPYDTKYDTIEGDYPLVVKKSNNHTVLITQARSFGKYVGRLTVNFDCEGEVQSWEGYPIYMNNSVKQDEEVLRELEPWRAEVKRLGTQVIGTTEVFLDRESCRWCECTLGDLIADAYADQYTNSTVQPVAFVQAGNFRNPIEKGDITNGLAIEAAPYGSSVDMIKLSGADLWSAIDHSFTLDDEFRYNTAQVSGMTVVADLSKKPYERVQSIDIVGANGAKTALKKDQIYYVAVPSYLADGKDGFAMLKKGTNRVTGPLDSDVLIEYVRKRQTIAKTMFQEKRVVIENHTNGTCSWDLDSQRYKPK
- soluble on expression in E. coli: not soluble

Sequence: PNILRGLLLGYSEKMVELEHKVEVMQPTIDAFDRIATANGSLCLTDAAKALQMRPKDFISFLSQKQWIYKRTGSAHYVGYQDKVQAGFLEHKVTEVTRGDGSNKITEQVRVTPKGLTRLSKLLGNNHV
- soluble on expression in E. coli: not soluble

Sequence: MDVTCNIKNGRCEQFCKNSADNKVVCSCTEGYRLAENQKSCEPAVPFPCGRVSVSQTSK
- soluble on expression in E. coli: soluble

Sequence: MSAVLTAEDTLVLASTATPVEMELIMGWLGQQRARHPDSKFDILKLPPRNAPPAALTALVEQLEPGFASSPQSGEDRSIVPVRVIWLPPADRSRAGKVAALLPGRDPYHPSQRQQRRILRTDPRRARVVAGESAKVSELRQQWRDTTVAEHKRDFAQFVSRRALLALARAEYRILGPQYKSPRLVKPEMLASARFRAGLDRIPGATVEDAGKMLDELSTGWSQVSVDLVSVLGRLASRGFDPEFDYDEYQVAAMRAALEAHPAVLLFSHRSYIDGVVVPVAMQDNRLPPVHMFGGINLSFGLMGPLMRRSGMIFIRRNIGNDPLYKYVLKEYVGYVVEKRFNLSWSIEGTRSRTGKMLPPKLGLMSYVADAYLDGRSDDILLQGVSICFDQLHEITEYAAYARGAEKTPEGLRWLYNFIKAQGERNFGKIYVRFPEAVSMRQYLGAPHGELTQDPAAKRLALQKMSFEVAWRILQATPVTATGLVSALLLTTRGTALTLDQLHHTLQDSLDYLERKQSPVSTSALRLRSREGVRAAADALSNGHPVTRVDSGREPVWYIAPDDEHAAAFYRSSVIHAFLETSIVELALAHAKHAEGDRVAAFWAQAMRLRDLLKFDFYFADSTAFRANIAQEMAWHQDWEDHLGVGGNEIDAMLYAKRPLMSDAMLRVFFEAYEIVADVLRDAPPDIGPEELTELALGLGRQFVAQGRVRSSEPVSTLLFATARQVAVDQELIAPAADLAERRVAFRRELRNILRDFDYVEQIARNQFVAREFKARQGRDRILEHHHHHH
- soluble on expression in E. coli: not soluble

Sequence: MDELSDIGDWSLIQSFLAVAETGSLSAAARQLDRSQPTLGRHVQALEQALGLSLFDRHARGLKLSADGARILPLAQQAHRAMTAISVTAAGQSQSLAGTVRITASVFASHHILPPILADIRAAEPAIELELVPSDTTENLLFRAADIAVRMYRPRQVDIVARHIGDVPLCACAATSYLERKGRPTRAEDLLDFDLVGYDADPIIVKTMQALGWPVTRHSFAMRCDNQSAYWQLIRAGCGIGFGQRSIVAADPLVEVLPFELPVPPLEMWLAAPQAMRLTPRIRRVWDLLAAGLLAAPL
- soluble on expression in E. coli: not soluble

Sequence: MGSDKIHHHHHHMKTLCTHSLPKEKMPYLLRSGEGERYLFGRQVATVMANGRSTGDLFEIVLLSGGKGDAFPLHVHKDTHEGILVLDGKLELTLDGERYLLISGDYANIPAGTPHSYRMQSHRTRLVSYTMKGNVAHLYSVIGNPYDHAEHPPYASEEVSNERFAEAAAVADIVFLDEAKPACSAKLAELTELPDGAVPYVLESGEGDRLLTGDQLHRIVAAQKNTDGQFIVVSSEGPKGDRIVDHYHEYHTETFYCLEGQMTMWTDGQEIQLNPGDFLHVPANTVHSYRLDSHYTKMVGVLVPGLFEPFFRTLGDPYEGHIFPCEPQALRFDRILQNIEALDLKVMKP
- soluble on expression in E. coli: not soluble

Sequence: MATRPKTIWESFLSPVVRFLMDEDKWRRYAQSIDWEKESDRFRRTDVIIPSYYTSQNFHGIEGGYLNSSAAVTYDPITEYVLPPNETLVRQALIDGVKVQPRRILDLGCGTGSTTLMLKQAFPQADVIGLDLSPYMLVRAEDKARTADLDISWRHGNAEKTSFPNASFDLVTTSLLFHETPVEVSQTILQECFRLLVAGGQVIILDGNQKSLRQLNWLNDIFEEPYIREYAADNLDARMGAAGFVGVQTEDLWLIHQVTSGIKPILATDTNQIKDRQYMPAIDNNNLEGLESPAFGIVALEHHHHHH
- soluble on expression in E. coli: not soluble
